From article PMC3102714, “OsSpo11-4, a Rice Homologue of the Archaeal TopVIA Protein, Mediates Double-Strand DNA Cleavage and Interacts with OsTopVIB” (PLoS ONE, 2011)

Target: T1, GST-OsTopVIB fusion protein (Oryza sativa L. ssp. japonica, UniProt Q6H442 1-696)
T1 construct: OsTopVIB, Oryza sativa L. ssp. japonica; ORF amplified with primers P17 and P18, cloned BamHI/BglII into pESP-2; fusion about 103 kD; also called OsTopVIB-GST fusion; GST-TopVIB
T1 sequence (looked up): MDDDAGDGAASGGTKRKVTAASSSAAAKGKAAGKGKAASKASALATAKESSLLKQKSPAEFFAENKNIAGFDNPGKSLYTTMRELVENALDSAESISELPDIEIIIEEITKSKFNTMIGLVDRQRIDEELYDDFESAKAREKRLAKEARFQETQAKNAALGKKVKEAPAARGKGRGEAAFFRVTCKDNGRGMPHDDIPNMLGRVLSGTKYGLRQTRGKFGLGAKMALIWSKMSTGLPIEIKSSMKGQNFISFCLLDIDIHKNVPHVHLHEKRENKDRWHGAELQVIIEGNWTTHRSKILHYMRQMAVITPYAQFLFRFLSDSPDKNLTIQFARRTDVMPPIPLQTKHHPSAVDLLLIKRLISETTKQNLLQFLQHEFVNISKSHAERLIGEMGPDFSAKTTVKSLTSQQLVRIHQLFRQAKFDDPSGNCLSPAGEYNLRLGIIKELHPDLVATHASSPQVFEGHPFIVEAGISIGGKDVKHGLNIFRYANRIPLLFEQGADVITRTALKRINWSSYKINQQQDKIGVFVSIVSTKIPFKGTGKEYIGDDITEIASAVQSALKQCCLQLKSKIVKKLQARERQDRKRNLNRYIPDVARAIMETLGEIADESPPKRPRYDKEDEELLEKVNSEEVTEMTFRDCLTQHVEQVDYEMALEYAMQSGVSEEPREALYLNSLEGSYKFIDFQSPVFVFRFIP
Assay: pull-down; GST-OsTopVIB preabsorbed to Glutathione Sepharose resin; purified pET-OsSpo11-4 precleared with GST resin; 0.5% NP-40 lysis buffer (20 mM Tris-HCl pH 8.0, 200 mM NaCl, 1 mM EDTA), 4°C, 6 h; western blot with antibody against pET-OsSpo11-4
Details: both partners purified

B1: pET-OsSpo11-4 fusion protein (natural protein, Oryza sativa L. ssp. japonica, UniProt Q2QM00 1-487, looked up)
chain: MDDSTDDDSYHPRKHYAYDRQVSSSRWRTSREYIRGPGPETHTTESAQDGQDPPAGVYSYGYFSGSGNDPQVQGHFVPEIQKYNPYVIFKGEQLPVPIWELPEEKVQDFHDRYFIAKDKSRVEARKTLNRLLEGNINTIERGHGYKFNIPKYTDNMEFNEEVKVSLAKAGKTISRSFCNANQREVASRTGYTIDLIERTLGAGLNISKRTVLYTNKDLFGDQSKSDQAINDICALTNIRRGSLGIIAAEKGIVVGNIFLELTNGKSISCSIGVQIPHRLDQIKDVCVEIGSRNIEYILVVEKHTMLNYLLEMDYHTNNNCIILTGCGMPTLQTRDFLRFLKQRTGLPVFGLCDPDPEGISILATYARGSCNSAYDNFNISVPSICWVGLSSSDMIKLNLSETNYSRLSREDKTMLKNLWQDDLSDVWKRRIEEMISFDKKASFEAIHSLGFDYFATNLLPDMINKVREGYVQVQEKKEPQDTEASED
notes: OsSpo11-4, Oryza sativa L. ssp. japonica, predicted protein of 487 amino acids; full-length ORF amplified with primers P5 and P6, cloned into EcoRI/XhoI of pET-32a(+); fusion about 72 kD; Forward primer P5 lacks the ATG GAT that primer P15 has, so the insert may lack the first two codons; also called pET-Spo11-4
  binding result: binds
